From IntAct's records for PubMed 16814718

B1: Recombination protein 107 (Saccharomyces cerevisiae), P21651 (parent)
chain: MVARGRTDEISTDVSEANSEHSLMITETSSPFRSIFSHSGKVANAGALEESDKQILEWAGKLELESMELRENSDKLIKVLNENSKTLCKSLNKFNQLLEQDAATNGNVKTLIKDLASQIENQLDKVSTAMLSKGDEKKTKSDSSYRQVLVEEISRYNSKITRHVTNKQHETEKSMRCTQEMLFNVGSQLEDVHKVLLSLSKDMHSLQTRQTALEMAFREKADHAYDRPDVSLNGTTLLHDMDEAHDKQRKKSVPPPRMMVTRSMKRRRSSSPTLSTSQNHNSEDNDDASHRLKRAARTIIPWEELRPDTLESEL
partner: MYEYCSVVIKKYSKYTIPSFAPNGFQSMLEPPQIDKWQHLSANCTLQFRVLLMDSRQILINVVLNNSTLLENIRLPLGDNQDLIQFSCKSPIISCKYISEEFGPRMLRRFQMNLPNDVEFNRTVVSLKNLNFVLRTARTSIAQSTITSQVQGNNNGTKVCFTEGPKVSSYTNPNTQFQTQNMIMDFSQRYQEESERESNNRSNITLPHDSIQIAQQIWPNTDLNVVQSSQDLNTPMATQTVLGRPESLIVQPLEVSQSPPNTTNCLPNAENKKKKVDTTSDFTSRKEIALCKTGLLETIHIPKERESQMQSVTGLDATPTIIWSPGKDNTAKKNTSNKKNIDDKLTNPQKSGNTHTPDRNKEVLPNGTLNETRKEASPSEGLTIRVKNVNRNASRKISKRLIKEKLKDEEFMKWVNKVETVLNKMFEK
B2: Recombination protein 107 (Saccharomyces cerevisiae), P21651 (parent)
chain: B1 chain
partner: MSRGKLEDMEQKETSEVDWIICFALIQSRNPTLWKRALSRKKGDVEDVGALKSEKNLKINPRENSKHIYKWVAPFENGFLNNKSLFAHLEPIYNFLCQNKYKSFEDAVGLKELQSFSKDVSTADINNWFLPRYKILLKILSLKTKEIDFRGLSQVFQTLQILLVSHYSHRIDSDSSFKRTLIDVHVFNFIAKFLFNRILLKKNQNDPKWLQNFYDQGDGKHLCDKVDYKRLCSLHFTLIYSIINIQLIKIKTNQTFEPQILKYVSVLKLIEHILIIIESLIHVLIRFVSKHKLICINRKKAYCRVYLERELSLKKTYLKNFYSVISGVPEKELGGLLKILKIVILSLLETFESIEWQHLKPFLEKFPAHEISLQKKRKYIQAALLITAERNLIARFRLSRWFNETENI
B3: Recombination protein 107 (Saccharomyces cerevisiae), P21651 (parent)
chain: B1 chain
partner: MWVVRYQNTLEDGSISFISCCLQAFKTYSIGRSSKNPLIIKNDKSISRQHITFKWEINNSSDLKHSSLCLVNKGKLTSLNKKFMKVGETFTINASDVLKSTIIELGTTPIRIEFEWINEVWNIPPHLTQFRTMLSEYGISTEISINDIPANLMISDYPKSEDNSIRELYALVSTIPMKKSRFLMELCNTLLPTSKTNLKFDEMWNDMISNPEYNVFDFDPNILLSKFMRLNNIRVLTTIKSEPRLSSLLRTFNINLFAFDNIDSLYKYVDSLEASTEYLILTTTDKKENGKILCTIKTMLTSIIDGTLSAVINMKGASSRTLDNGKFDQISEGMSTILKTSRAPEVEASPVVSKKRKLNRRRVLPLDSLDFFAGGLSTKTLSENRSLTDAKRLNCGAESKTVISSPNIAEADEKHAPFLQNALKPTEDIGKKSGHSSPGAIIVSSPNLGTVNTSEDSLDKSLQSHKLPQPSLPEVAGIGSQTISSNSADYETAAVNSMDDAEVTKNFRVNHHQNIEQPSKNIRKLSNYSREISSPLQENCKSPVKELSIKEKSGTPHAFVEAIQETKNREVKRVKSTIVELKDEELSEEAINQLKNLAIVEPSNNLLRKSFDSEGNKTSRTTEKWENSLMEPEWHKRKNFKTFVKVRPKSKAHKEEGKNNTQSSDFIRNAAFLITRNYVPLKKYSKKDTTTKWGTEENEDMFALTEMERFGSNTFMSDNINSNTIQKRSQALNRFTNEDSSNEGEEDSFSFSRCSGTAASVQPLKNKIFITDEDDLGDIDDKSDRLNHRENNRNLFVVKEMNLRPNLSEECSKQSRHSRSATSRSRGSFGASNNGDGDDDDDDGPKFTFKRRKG

Variants of: B1
Details: with re114_yeast REC114, P32841

effect of a mutation on the interaction | Variant
disrupting interaction strength | MVARGRTDEISTDVSEANSEHSLMITETSAPFRSIFSHSGKVANAGALEESDKQILEWAGKLELESMELRENSDKLIKVLNENSKTLCKSLNKFNQLLEQDAATNGNVKTLIKDLASQIENQLDKVSTAMLSKGDEKKTKSDSSYRQVLVEEISRYNSKITRHVTNKQHETEKSMRCTQEMLFNVGSQLEDVHKVLLSLSKDMHSLQTRQTALEMAFREKADHAYDRPDVSLNGTTLLHDMDEAHDKQRKKSVPPPRMMVTRSMKRRRSSSPTLSTSQNHNSEDNDDASHRLKRAARTIIPWEELRPDTLESEL [S30A]
with no effect | MVARGRTDEISTDVSEANSEHSLMITETSSPFRSIFSHSGKVANAGALEESDKQILEWAGKLELESMELRENSDKLIKVLNENSKTLCKSLNKFNQLLEQDAATNGNVKTLIKDLASQIENQLDKVSTAMLSKGDEKKTKSDSSYRQVLVEEISRYNSKITRHVTNKQHETEKSMRCTQEMLFNVGSQLEDVHKVLLSLSKDMHSLQTRQTALEMAFREKADHAYDRPDVSLNGTTLLHDMDEAHDKQRKKSVPPPRMMVTRSMKRRRSSAPTLSTSQNHNSEDNDDASHRLKRAARTIIPWEELRPDTLESEL [S271A]
disrupting interaction strength | MVARGRTDEISTDVSEANSEHSLMITETSAPFRSIFSHSGKVANAGALEESDKQILEWAGKLELESMELRENSDKLIKVLNENSKTLCKSLNKFNQLLEQDAATNGNVKTLIKDLASQIENQLDKVSTAMLSKGDEKKTKSDSSYRQVLVEEISRYNSKITRHVTNKQHETEKSMRCTQEMLFNVGSQLEDVHKVLLSLSKDMHSLQTRQTALEMAFREKADHAYDRPDVSLNGTTLLHDMDEAHDKQRKKSVPPPRMMVTRSMKRRRSSAPTLSTSQNHNSEDNDDASHRLKRAARTIIPWEELRPDTLESEL [S30A;S271A]

Variants of: B2
Details: with mei4_yeast MEI4, P29467

effect of a mutation on the interaction | Variant
decreasing interaction strength | MVARGRTDEISTDVSEANSEHSLMITETSAPFRSIFSHSGKVANAGALEESDKQILEWAGKLELESMELRENSDKLIKVLNENSKTLCKSLNKFNQLLEQDAATNGNVKTLIKDLASQIENQLDKVSTAMLSKGDEKKTKSDSSYRQVLVEEISRYNSKITRHVTNKQHETEKSMRCTQEMLFNVGSQLEDVHKVLLSLSKDMHSLQTRQTALEMAFREKADHAYDRPDVSLNGTTLLHDMDEAHDKQRKKSVPPPRMMVTRSMKRRRSSAPTLSTSQNHNSEDNDDASHRLKRAARTIIPWEELRPDTLESEL [S30A;S271A]
with no effect | MVARGRTDEISTDVSEANSEHSLMITETSSPFRSIFSHSGKVANAGALEESDKQILEWAGKLELESMELRENSDKLIKVLNENSKTLCKSLNKFNQLLEQDAATNGNVKTLIKDLASQIENQLDKVSTAMLSKGDEKKTKSDSSYRQVLVEEISRYNSKITRHVTNKQHETEKSMRCTQEMLFNVGSQLEDVHKVLLSLSKDMHSLQTRQTALEMAFREKADHAYDRPDVSLNGTTLLHDMDEAHDKQRKKSVPPPRMMVTRSMKRRRSSAPTLSTSQNHNSEDNDDASHRLKRAARTIIPWEELRPDTLESEL [S271A]
decreasing interaction strength | MVARGRTDEISTDVSEANSEHSLMITETSAPFRSIFSHSGKVANAGALEESDKQILEWAGKLELESMELRENSDKLIKVLNENSKTLCKSLNKFNQLLEQDAATNGNVKTLIKDLASQIENQLDKVSTAMLSKGDEKKTKSDSSYRQVLVEEISRYNSKITRHVTNKQHETEKSMRCTQEMLFNVGSQLEDVHKVLLSLSKDMHSLQTRQTALEMAFREKADHAYDRPDVSLNGTTLLHDMDEAHDKQRKKSVPPPRMMVTRSMKRRRSSSPTLSTSQNHNSEDNDDASHRLKRAARTIIPWEELRPDTLESEL [S30A]

Variants of: B3
Details: with xrs2_yeast XRS2, P33301

effect of a mutation on the interaction | Variant
disrupting interaction strength | MVARGRTDEISTDVSEANSEHSLMITETSAPFRSIFSHSGKVANAGALEESDKQILEWAGKLELESMELRENSDKLIKVLNENSKTLCKSLNKFNQLLEQDAATNGNVKTLIKDLASQIENQLDKVSTAMLSKGDEKKTKSDSSYRQVLVEEISRYNSKITRHVTNKQHETEKSMRCTQEMLFNVGSQLEDVHKVLLSLSKDMHSLQTRQTALEMAFREKADHAYDRPDVSLNGTTLLHDMDEAHDKQRKKSVPPPRMMVTRSMKRRRSSAPTLSTSQNHNSEDNDDASHRLKRAARTIIPWEELRPDTLESEL [S30A;S271A]
decreasing interaction strength | MVARGRTDEISTDVSEANSEHSLMITETSSPFRSIFSHSGKVANAGALEESDKQILEWAGKLELESMELRENSDKLIKVLNENSKTLCKSLNKFNQLLEQDAATNGNVKTLIKDLASQIENQLDKVSTAMLSKGDEKKTKSDSSYRQVLVEEISRYNSKITRHVTNKQHETEKSMRCTQEMLFNVGSQLEDVHKVLLSLSKDMHSLQTRQTALEMAFREKADHAYDRPDVSLNGTTLLHDMDEAHDKQRKKSVPPPRMMVTRSMKRRRSSAPTLSTSQNHNSEDNDDASHRLKRAARTIIPWEELRPDTLESEL [S271A]
disrupting interaction strength | MVARGRTDEISTDVSEANSEHSLMITETSAPFRSIFSHSGKVANAGALEESDKQILEWAGKLELESMELRENSDKLIKVLNENSKTLCKSLNKFNQLLEQDAATNGNVKTLIKDLASQIENQLDKVSTAMLSKGDEKKTKSDSSYRQVLVEEISRYNSKITRHVTNKQHETEKSMRCTQEMLFNVGSQLEDVHKVLLSLSKDMHSLQTRQTALEMAFREKADHAYDRPDVSLNGTTLLHDMDEAHDKQRKKSVPPPRMMVTRSMKRRRSSSPTLSTSQNHNSEDNDDASHRLKRAARTIIPWEELRPDTLESEL [S30A]
